Series [1] can be described thus: Solubility measurement in water (absorbance of supernatant at 280 nm). As to conditions: 25° C.
Description: (§1) After the centrifugation, the absorbance of the supernatant portion at 280 nm was measured in the microtube. From the obtained value, the concentration was calculated to determine solubility.
Series [2] is described as follows: Tracing of hydrolysis behavior in aqueous solution by HPLC (hydrolysis half-life). How it is done:
[…] A given amount of each solution was injected to HPLC at appropriate time intervals to trace the hydrolysis reaction. The relative starting material concentration was determined from an HPLC peak area corresponding to the starting material. The relative concentration of the starting material was plotted against incubation time. […] Also, the terminal half-life t1/2 of the starting material was calculated according to the expression t1/2=ln(2)/k (wherein k represents the slope of the linear plot).

Series [3] relates to cytotoxic T lymphocyte (CTL). As to conditions: cited from earlier work.
A short description of series [4]: Solubility measurement in 0.1% aqueous acetic acid (AcOH) solution. The settings on record: aqueous acetic acid solution (0.1% AcOH).
Description: as §1
For series [5] the following is noted: Solubility (μM).
Description: as §1
The conditions of series [6]: Solubility (μM). The source holds these as a separate data set.
Description: as §1
Where [7] appears, read: buffer, pH 4, Hydrolysis half-life, Acetate buffer solution (pH 4.0), 25° C.
The mark [8] stands for this setting: buffer, pH 4, Hydrolysis half-life, Acetate buffer solution (pH 4.0), 37° C.
Where [9] appears, read: buffer, pH 7.4, Hydrolysis half-life, PBS (pH 7.4), 25° C.
The mark [10] stands for this setting: buffer, pH 7.4, Hydrolysis half-life, PBS (pH 7.4), 37° C.

Where two headings read alike, the source gives them in different places. Some results are limits rather than exact numbers.

As usually defined, the solubility is the concentration that dissolves in the medium under given conditions. Usually half-life stands for the time needed for the level to fall by half in the phase considered. A lower half-life goes with fast loss.

Take `CC(=O)N[C@@H]1[C@@H](O)[C@H](O[C@@H]2O[C@H](CO)[C@@H](O[C@@H]3O[C@H](CO[C@H]4O[C@H](CO)[C@@H](O)[C@H](O)[C@@H]4O[C@@H]4O[C@H](CO)[C@@H](O[C@@H]5O[C@H](CO)[C@H](O)[C@H](O)[C@H]5O)[C@H](O)[C@H]4NC(C)=O)[C@@H](O)[C@H](O[C@H]4O[C@H](CO)[C@@H](O)[C@H](O)[C@@H]4O[C@@H]4O[C@H](CO)[C@@H](O[C@@H]5O[C@H](CO)[C@H](O)[C@H](O)[C@H]5O)[C@H](O)[C@H]4NC(C)=O)[C@@H]3O)[C@H](O)[C@H]2NC(C)=O)[C@@H](CO)O[C@H]1NC(=O)C[C@H](NC(=O)Cc1ccc(SC(=O)[C@H](CC(C)C)NC(=O)[C@H](CC(C)C)NC(=O)[C@H](C)NC(=O)[C@H](CC(C)C)NC(=O)[C@H](CC(C)C)NC(=O)[C@H](CC(C)C)NC(=O)CNC(=O)[C@H](Cc2c[nH]c3ccccc23)NC(=O)[C@@H](N)CCCNC(=N)N)cc1)C(=O)NCC(N)=O` [compound 21]: the solubility at 15 min in series [1] (water, Solubility (mg/mL)) is ≥ 76.7 mg/mL; in series [1] (water, Solubility (μM)), > 26000 µM. For the same compound, the half-life in series [2] (PBS, pH 7.4, Hydrolysis half-life, PBS (pH 7.4), 4° C.) is 66 h; in series [2] (PBS, pH 7.4, Hydrolysis half-life, PBS (pH 7.4), 25° C.), 25 h; in series [2] (PBS, pH 7.4, Hydrolysis half-life, PBS (pH 7.4), 37° C.) it was 4 h; in series [2] (acetate buffer solution, pH 4, Hydrolysis half-life, Acetate buffer solution (pH 4.0), 25° C.), 456 h; in series [2] (acetate buffer solution, pH 4, Hydrolysis half-life, Acetate buffer solution (pH 4.0), 37° C.), 240 h. Also, the “Hydrolysis product found by HPLC analysis” value in series [2] (after hydrolysis test in buffer solution) was “production of the unmodified HER2(8-16) peptide (compound 10) was confirmed”.

Turning to `CC(=O)N[C@@H]1[C@@H](O)[C@H](O[C@@H]2O[C@H](CO)[C@@H](O[C@@H]3O[C@H](CO[C@H]4O[C@H](CO)[C@@H](O)[C@H](O)[C@@H]4O[C@@H]4O[C@H](CO)[C@@H](O[C@@H]5O[C@H](CO)[C@H](O)[C@H](O)[C@H]5O)[C@H](O)[C@H]4NC(C)=O)[C@@H](O)[C@H](O[C@H]4O[C@H](CO)[C@@H](O)[C@H](O)[C@@H]4O[C@@H]4O[C@H](CO)[C@@H](O[C@@H]5O[C@H](CO)[C@H](O)[C@H](O)[C@H]5O)[C@H](O)[C@H]4NC(C)=O)[C@@H]3O)[C@H](O)[C@H]2NC(C)=O)[C@@H](CO)O[C@H]1NC(=O)CSCCSC(=O)[C@H](CC(C)C)NC(=O)[C@H](CC(C)C)NC(=O)[C@H](C)NC(=O)[C@H](CC(C)C)NC(=O)[C@H](CC(C)C)NC(=O)[C@H](CC(C)C)NC(=O)CNC(=O)[C@H](Cc1c[nH]c2ccccc12)NC(=O)[C@@H](N)CCCNC(=N)N` [compound 20], the results for the solubility at 15 min in series [1] (Solubility (mg/mL)) and in series [1] (Solubility (μM)) were ≥ 77.4 mg/mL and > 28000 µM, respectively. The half-life in series [2] (setting [7]) is > 720 h; in series [2] (setting [8]), 576 h; in series [2] (buffer, pH 7.4, Hydrolysis half-life, PBS (pH 7.4), 4° C.), 230 h; in series [2] (setting [9]) it was 120 h; in series [2] (setting [10]), 32 h.

On to `CC(C)C[C@H](NC(=O)[C@H](CC(C)C)NC(=O)[C@H](C)NC(=O)[C@H](CC(C)C)NC(=O)[C@H](CC(C)C)NC(=O)[C@H](CC(C)C)NC(=O)CNC(=O)[C@H](Cc1c[nH]c2ccccc12)NC(=O)[C@@H](N)CCCNC(=N)N)C(=O)O` [compound 10], for which the “Ability to induce cytotoxic T lymphocyte (CTL)” value in series [3] is “exhibits the ability to induce cytotoxic T lymphocyte (CTL)”.

With `CC(=O)N[C@@H]1[C@@H](O)[C@H](O[C@@H]2O[C@H](CO)[C@@H](O[C@@H]3O[C@H](CO[C@H]4O[C@H](CO)[C@@H](O)[C@H](O)[C@@H]4O[C@@H]4O[C@H](CO)[C@@H](O[C@@H]5O[C@H](CO[C@]6(C(=O)O)C[C@H](O)[C@@H](NC(C)=O)[C@H]([C@H](O)[C@H](O)CO)O6)[C@H](O)[C@H](O)[C@H]5O)[C@H](O)[C@H]4NC(C)=O)[C@@H](O)[C@H](O[C@H]4O[C@H](CO)[C@@H](O)[C@H](O)[C@@H]4O[C@@H]4O[C@H](CO)[C@@H](O[C@@H]5O[C@H](CO[C@]6(C(=O)O)C[C@H](O)[C@@H](NC(C)=O)[C@H]([C@H](O)[C@H](O)CO)O6)[C@H](O)[C@H](O)[C@H]5O)[C@H](O)[C@H]4NC(C)=O)[C@@H]3O)[C@H](O)[C@H]2NC(C)=O)[C@@H](CO)O[C@H]1NC(=O)CSC[C@H](NC(=O)c1ccc(COC(=O)[C@H](CC(C)C)NC(=O)[C@H](CC(C)C)NC(=O)[C@H](C)NC(=O)[C@H](CC(C)C)NC(=O)[C@H](CC(C)C)NC(=O)[C@H](CC(C)C)NC(=O)CNC(=O)[C@H](Cc2c[nH]c3ccccc23)NC(=O)[C@@H](N)CCCNC(=N)N)cc1)C(N)=O` [compound 8], the solubility at 15 min in series [1] (Solubility (mg/mL)) was ≥ 121 mg/mL; in series [1] (Solubility (μM)) it was > 47000 µM; in series [4] (Solubility (mg/mL)), ≥ 104 mg/mL; in series [4] (Solubility (μM)), > 34000 µM. Also, the half-life in series [2] (setting [7]) was > 720 h; in series [2] (setting [8]) it was > 720 h; in series [2] (setting [9]), 121 h; in series [2] (setting [10]), 106 h.

With `CC(=O)N[C@@H]1[C@@H](O)[C@H](O[C@@H]2O[C@H](CO)[C@@H](O[C@@H]3O[C@H](CO[C@H]4O[C@H](CO)[C@@H](O)[C@H](O)[C@@H]4O[C@@H]4O[C@H](CO)[C@@H](O[C@@H]5O[C@H](CO)[C@H](O)[C@H](O)[C@H]5O)[C@H](O)[C@H]4NC(C)=O)[C@@H](O)[C@H](O[C@H]4O[C@H](CO)[C@@H](O)[C@H](O)[C@@H]4O[C@@H]4O[C@H](CO)[C@@H](O[C@@H]5O[C@H](CO)[C@H](O)[C@H](O)[C@H]5O)[C@H](O)[C@H]4NC(C)=O)[C@@H]3O)[C@H](O)[C@H]2NC(C)=O)[C@@H](CO)O[C@H]1NC(=O)CSCC(NC(=O)c1ccc(COC(=O)[C@H](CC(C)C)NC(=O)[C@H](CC(C)C)NC(=O)[C@H](C)NC(=O)[C@H](CC(C)C)NC(=O)[C@H](CC(C)C)NC(=O)[C@H](CC(C)C)NC(=O)CNC(=O)[C@H](Cc2c[nH]c3ccccc23)NC(=O)[C@@H](N)CCCNC(=N)N)cc1)C(N)=O` (stereo partly drawn) [compound 1], the solubility at 15 min in series [5] was > 41000 µM; in series [6], > 37000 µM. Besides, the Hydrolysis half-life in series [2] (buffer, pH 4) is >720 h; in series [2] (buffer, pH 7.4), 146 h. Besides, the half-life was > 720 h in series [2] (buffer, pH 4, Hydrolysis half-life) and 78 h in series [2] (buffer, pH 7.4, Hydrolysis half-life).

Values taken from US10202469B2, “Sugar chain-attached linker, compound containing sugar chain-attached linker and physiologically active substance or salt thereof, and method for producing same” (Glytech, Inc., priority 2012, dated 2019).
